Consider one protein from publication PMC4772074 (Biochemistry, 2015).

The stoichiometry N is a count of units in the complex or per binding partner.

This data set concerns the molecule itself. The data set is described as follows: SEC-MALS.

B1: E. coli CheA (enzyme)
chain: MSMDISDFYQTFFDEADELLADMEQHLLVLQPEAPDAEQLNAIFRAAHSIKGGAGTFGFSVLQETTHLMENLLDEARRGEMQLNTDIINLFLETKDIMQEQLDAYKQSQEPDAASFDYICQALRQLALEAKGETPSAVTRLSVVAKSEPQDEQSRSQSPRRIILSRLKAGEVDLLEEELGHLTTLTDVVKGADSLSAILPGDIAEDDITAVLCFVIEADQITFETVEVSPKISTPPVLKLAAEQAPTGRVEREKTTRSNESTSIRVAVEKVDQLINLVGELVITQSMLAQRSSELDPVNHGDLITSMGQLQRNARDLQESVMSIRMMPMEYVFSRYPRLVRDLAGKLGKQVELTLVGSSTELDKSLIERIIDPLTHLVRNSLDHGIELPEKRLAAGKNSVGNLILSAEHQGGNICIEVTDDGAGLNRERILAKAASQGLTVSENMSDDEVAMLIFAPGFSTAEQVTDVSGRGVGMDVVKRNIQKMGGHVEIQSKQGTGTTIRILLPLTLAILDGMSVRVADEVFILPLNAVMESLQPREADLHPLAGGERVLEVRGEYLPIVELWKVFNVAGAKTEATQGIVVILQSGGRRYALLVDQLIGQHQVVVKNLESNYRKVPGISAATILGDGSVALIVDVSALQAINREQRMANTAA
Regarding B1, the “stoichiometry N” value turned out to be 2.
